Consider two molecules from US20210301005A1.

Experiment [1] addresses human TGFβ2, mature receptor-binding domain (human).
Experiment [2] concerns the target human TGFβ3, mature dimeric form (human) (UniProt P10600).
The target in experiment [3] is human TGFβ1, mature receptor-binding domain (human) (UniProt P01137).
Experiment [4] has as its target human TGFβ3, mature dimeric form (human) (UniProt P10600). The source holds these as a separate data set.

Sequence of human TGFβ3, mature dimeric form (human) (P10600 301-412): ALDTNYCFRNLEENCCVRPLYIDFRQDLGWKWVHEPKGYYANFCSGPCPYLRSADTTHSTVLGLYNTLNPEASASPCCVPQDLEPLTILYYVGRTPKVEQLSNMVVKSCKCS
Sequence of human TGFβ2, mature receptor-binding domain (human) (P09858 303-414 limits assumed): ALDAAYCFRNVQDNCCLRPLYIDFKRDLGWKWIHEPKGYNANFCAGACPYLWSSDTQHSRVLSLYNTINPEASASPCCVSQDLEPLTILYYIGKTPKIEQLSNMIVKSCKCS
Sequence of human TGFβ1, mature receptor-binding domain (human) (P01137 279-390 limits assumed): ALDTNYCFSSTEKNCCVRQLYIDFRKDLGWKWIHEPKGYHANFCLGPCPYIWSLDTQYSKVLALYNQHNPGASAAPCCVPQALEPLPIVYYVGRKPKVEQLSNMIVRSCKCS

B1: Fc-LAP3 (Fc fusion, not shown: a dimerising Fc or GST)
chain: LSTCTTLDFGHIKKKRVEAIRGQILSKLRLTSPPEPTVMTHVPYQVLALYNSTRELLEEMHGEREEGCTQENTESEYYAKEIHKFDMIQGLAEHNELAVCPKGITSKVFRFNVSSVEKNRTNLFRAEFRVLRVPNPSSKRNEQRIELFQILRPDEHIAKQRYIGGKNLPTRGTAEWLSFDVTDTVREWLLRRESNLGLEISIHCPCHTFQPNGDILENIHEVMEIKFKGVDNEDDHGRGDLGRLKKQKDHHNPHLILMMIPPHRLDNPGQGGQRKKR
Take B1: the IC50 in experiment [1] is 12400 nM; in experiment [2], 2920 nM.

B2: Fc-LAP2 (Fc fusion, not shown: a dimerising Fc or GST)
chain: SLSTCSTLDMDQFMRKRIEAIRGQILSKLKLTSPPEDYPEPEEVPPEVISIYNSTRDLLQEKASRRAAACERERSDEEYYAKEVYKIDMPPFFPSENAIPPTFYRPYFRIVRFDVSAMEKNASNLVKAEFRVFRLQNPKARVPEQRIELYQILKSKDLTSPTQRYIDSKVVKTRAEGEWLSFDVTDAVHEWLHHKDRNLGFKISLHCPCCTFVPSNNYIIPNKSEELEARFAGIDGTSTYTSGDQKTIKSTRKKNSGKTPHLLLMLLPSYRLESQQTNRRKKR
For B2, the figures for the concentration for half-maximal inhibition (IC50) in experiment [1], in experiment [2] and in experiment [3] were 548 nM, 525 nM and 10100 nM, respectively. Moreover, the IC50 (read off the curve) in experiment [4] was 0.6 nM.
